Measured values taken from patent US20050124678 (Paratek Pharmaceuticals, Inc., published 2005).

Experiments:
SoxS = SoxS (Escherichia coli, UniProt P0A9E2 P0A9E2:1-107)
Rob = Rob (Escherichia coli, UniProt P0ACI0 SEQ:1-289)
MarA = biological target: T1, MarA (Escherichia coli, UniProt P0ACH5 P0ACH5:1-127)
T1 sequence: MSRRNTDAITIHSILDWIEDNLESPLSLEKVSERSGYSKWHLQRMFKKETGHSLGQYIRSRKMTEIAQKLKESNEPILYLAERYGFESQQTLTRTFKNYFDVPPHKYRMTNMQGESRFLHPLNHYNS

Measured: binding result

Chain of Rob (P0ACI0 whole entry): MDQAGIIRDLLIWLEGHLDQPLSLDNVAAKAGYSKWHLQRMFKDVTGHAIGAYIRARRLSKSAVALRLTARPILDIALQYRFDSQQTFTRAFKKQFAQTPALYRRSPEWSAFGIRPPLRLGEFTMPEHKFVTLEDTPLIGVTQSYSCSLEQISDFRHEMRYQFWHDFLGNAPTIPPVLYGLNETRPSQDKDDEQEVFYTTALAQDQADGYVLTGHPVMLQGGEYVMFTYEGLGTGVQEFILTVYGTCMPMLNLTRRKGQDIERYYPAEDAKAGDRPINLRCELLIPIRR
Chain of SoxS (P0A9E2 whole entry, one chain of several): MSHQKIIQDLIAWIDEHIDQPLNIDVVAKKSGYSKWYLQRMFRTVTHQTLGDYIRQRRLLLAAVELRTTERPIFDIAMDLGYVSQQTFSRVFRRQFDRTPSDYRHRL

B1: biotinylated target DNA (SEQ ID NO. 5) (dsDNA)
DNA 1: CCGATTTAGCAAAACGTGGCATCGGTC
DNA 2: GACCGATGCCACGTTTTGCTAAATCGG
binds: all assays above
